Patent US20170190749A1

T1: PhoCle0.1 large fragment after photocleavage (remainder of the protein)
T1 chain: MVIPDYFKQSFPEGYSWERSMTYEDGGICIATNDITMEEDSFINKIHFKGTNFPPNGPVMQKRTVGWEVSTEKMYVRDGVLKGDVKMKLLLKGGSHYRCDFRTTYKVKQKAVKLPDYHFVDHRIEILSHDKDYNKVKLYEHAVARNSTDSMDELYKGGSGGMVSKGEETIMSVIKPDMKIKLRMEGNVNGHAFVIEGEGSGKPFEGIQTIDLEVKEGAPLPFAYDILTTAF

T2: PhoCle0.3 large fragment after photocleavage (~20 kDa remainder of the PhoCle domain)
T2 chain: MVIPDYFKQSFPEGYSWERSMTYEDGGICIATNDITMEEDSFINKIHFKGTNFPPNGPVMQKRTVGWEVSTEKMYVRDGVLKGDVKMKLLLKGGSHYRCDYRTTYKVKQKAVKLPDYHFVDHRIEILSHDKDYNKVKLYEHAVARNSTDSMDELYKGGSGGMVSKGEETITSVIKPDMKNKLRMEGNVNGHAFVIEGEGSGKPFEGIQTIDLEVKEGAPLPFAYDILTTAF


What was measured:
[1] = biological target: T1, PhoCle0.1 large fragment after …; assay: spectroscopic and SDS-PAGE analyses of the protein before and after illumination
[2] = biological target: T2, PhoCle0.3 large fragment after …; assay: decay of red fluorescence/absorbance following photocleavage

| Binder | t0.5 of spontaneous dissociation after photocleavage [1] [s] | t0.5 of peptide dissociation after photocleavage [2] [s] |
| --- | --- | --- |
| HYGNRVFTKYPR (modifications not checked) [PhoCle0.1 small chromophore-containing peptide fragment after photocleavage] | 500 | – |
| HYGNRVFTKYPR (modifications not checked) [PhoCle0.3 small chromophore-containing peptide fragment after photocleavage] | – | 120 |
